Source: patent US20130203680A1, “FOLATE CONJUGATES FOR TREATING INFLAMMATION OF THE EYE” (ENDOCYTE, INC., priority 2010, published 2013)
One block for each molecule: values may come before it.

How the values were obtained:
Pharmacokinetic analysis = test: Pharmacokinetic analysis
Description: Table printed on a drawing sheet, Fig. 15C
Title: Pharmacokinetic analysis
The patent's description of the figure: FIG. 15. Pharmacokinetics of EC0746 and potential metabolites aminopterin (AMT) and AMT hydrazide (EC0470) in Rats. Panel A. Plasma concentrations (nmol/L) of EC0746, AMT and AMT hydrazide following single subcutaneous EC0746 (500 nmol/kg) administration. Panel B. Plasma concentrations (nmol/L) of AMT following single subcutaneous AMT (500 nmol/kg) administration. c. Pharmacokinetic analysis of the results of (a.) and (b.).
First reader's note: Each column is an analyte detected in rat plasma after dosing the test compound named in row 1; values are means of n=3.

DHFR = target: T1, DHFR (Mus musculus, UniProt P00375); test: DHFR activity in lysate of treated RAW264.7 cells; type: cell-based, murine; details: 10 μM, 2-h pulse, 22-h chase
T1 construct: endogenous in cells; host or cells: RAW264.7
T1 sequence (P00375 1-187): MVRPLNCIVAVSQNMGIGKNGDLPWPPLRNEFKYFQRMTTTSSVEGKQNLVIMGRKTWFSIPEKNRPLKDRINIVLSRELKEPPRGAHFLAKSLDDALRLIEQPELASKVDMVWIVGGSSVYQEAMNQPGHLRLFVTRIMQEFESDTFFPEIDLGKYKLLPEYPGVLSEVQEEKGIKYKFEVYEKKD
Procedure: RAW264.7 cells were treated with vehicle (medium), EC0746 (100 nM) without or with 100-fold excess free folate, aminopterin (AMT, 100 nM), methotrexate (MTX, 100 nM), or excess free folate alone (10 μM). […] At the end of incubation, the cells were lysed and the DHFR activity in cell lysates was measured using a commercial DHFR assay kit (Sigma-Aldrich, Saint Louis, Mo.).

RAW264.7 cells = test: XTT cell viability / proliferation of RAW264.7 cells; type: cell-based, murine
Procedure: (§1) For XTT cell viability and TNF-α inhibition assays, RAW264.7 cells in 96-well plates were treated with vehicle (culture medium) or 10-fold serial dilutions of EC0746 without or with 100-fold excess free folate. After 2 h incubation, the drug-containing media were replaced and the cells were allowed to incubate further for 70 h. Four hours prior to the end of incubation, LPS was added to the treated cells at a final concentration of 100 ng/mL. 100 μL of the culture supernatants were collected for TNF-α analysis using a commercial ELISA kit. See FIG. 2, Panel B. The cell viability was assessed by adding XTT (2,3-bis(2-methoxy-4-nitro-5-sulfo-phenyl)-2H-tetrazolium-5-carboxanilide) to the remaining medium for an additional 4 h following the manufacturer's instructions (Roche Applied Science, Indianapolis, Ind.) See FIG. 2, Panel A. Both results were expressed as % absorbance (minus background) relative to untreated control in triplicates.
(§2) RAW264.7 cells in 96-well plates were treated with vehicle (culture medium) or 10-fold serial dilutions of EC0932 without or with 100-fold excess free folate. […] The cell viability was assessed by adding XTT (2,3-bis(2-methoxy-4-nitro-5-sulfo-phenyl)-2H-tetrazolium-5-carboxanilide) to the remaining medium for an additional 4 h following the manufacturer's instructions (Roche Applied Science, Indianapolis, Ind.). […]

[1] = Plasma pharmacokinetics after a single subcutaneous dose of EC0746 or aminopterin
Procedure: Female Lewis rats with rounded tip jugular vein catheters (Harlan) were fed regular rodent diet and used in this study. The animals were given a single subcutaneous dose of EC0746 at 500 nmol/kg. Whole blood samples (300 μl) were collected from the animals at the following time points: 1 min, 10 min, 30 min, 1 h, 2 h, 3 h, 4 h, and 8 h after injection. The blood samples were placed into anti-coagulant tubes containing 1.7 mg/mL of K3-EDTA and 0.35 mg/mL of N-Maleoyl-beta-alanine (0.35 mg/mL). Plasma samples were obtained by centrifugation for 3 min at ˜2,000 g and stored at −80° C. The amount of EC0746 and its released base drugs (EC0470 & aminopterin) were determined by HPLC using the EC0746 injection solution as the standard (see FIG. 4). […] A similar method was used to determine the plasma pharmacokinetics of aminopterin (see FIG. 5).
Thus, the plasma concentrations of EC0746 and two primary metabolites, AMT and AMT hydrazide, were determined by LC/MS/MS after a single subcutaneous EC0746 administration. […] For comparison, the pharmacokinetics of subcutaneously dosed AMT (500 nmol/kg) was also examined (FIG. 15b).

Serum protein binding = type: in vitro ADME
[2] = Maximum tolerated dose in folate-deficient rats; type: in vivo, rat
Procedure: Healthy rats were administered a subcutaneous injection of the indicated dose of aminopterin or EC0746 biweekly for 2 weeks; control animals, no treatment, 100 nmole/kg aminopterin, 50 nmole/kg aminopterin, 500 nmole/kg EC0746, or 2000 nmole/kg EC0746. The animals were weighed daily. See FIG. 6, Panels A and B. A dose of […] of aminopterin in folate deficient rats is above the MTD; therefore, the projected MTD of EC0746 would be <0.5 μmol/kg based solely on ˜20% free drug release shown in the previous Example. However, the MTD of EC0746 is actually 2.0 μmol/kg, which is equivalent to 0.4 μmol/kg, or ˜8× higher than the MTD for free aminopterin. On a molar basis for total aminopterin, the MTD is 40× higher.
Since the toxicity of antifolates can be easily masked by rodent diets enriched with folate, healthy rats on a folate-deficient diet (Harlan) were used to determine the maximum-tolerated-dose levels (MTD) of EC0746, AMT and MTX. The animals were given biweekly injections of EC0746, AMT, and MTX for two weeks. The MTD dose was defined as the dose that had caused at least 13-14% weight loss combined with clinical signs of stress and at least one animal in the >MTD dose group needed to be euthanized. Standard hematologic and blood chemistry parameters were examined as needed along with histopathology. The MTDs of EC0746, MTX and AMT were determined to be 2000, 1000, and 50 nmol/kg, respectively. At above the MTD dose level, the main toxicities of EC0746 were similar to those of AMT and MTX, including manifested gastrointestinal distress (diarrhea), swollen muzzle, immunosuppression (bone marrow, thymus), low white-blood-cell count, low platelet count, and infections. […] Overall, EC0746 was approximately 40-fold less toxic than AMT and 2-fold less toxic than MTX on an equimolar basis in these folate-deficient animals; however, its toxicity profile at above MTD levels was not dissimilar from that of AMT and MTX.

[3] = target: folate receptors (FR-α) of KB cells (Homo sapiens, UniProt P15328); details: FR-α positive, 3H-folic acid
Chain of folate receptors (FR-α) of KB cells (P15328 25-234): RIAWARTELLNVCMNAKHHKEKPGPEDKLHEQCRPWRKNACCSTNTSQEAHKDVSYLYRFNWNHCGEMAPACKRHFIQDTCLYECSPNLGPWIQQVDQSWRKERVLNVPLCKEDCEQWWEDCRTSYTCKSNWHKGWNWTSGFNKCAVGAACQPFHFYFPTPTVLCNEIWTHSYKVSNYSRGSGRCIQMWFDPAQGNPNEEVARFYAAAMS

[4] = target: folate receptors (FR-β) of CHO cells (Homo sapiens, UniProt P14207); details: 3H-folic acid
Chain of folate receptors (FR-β) of CHO cells (P14207 17-230, species assumed): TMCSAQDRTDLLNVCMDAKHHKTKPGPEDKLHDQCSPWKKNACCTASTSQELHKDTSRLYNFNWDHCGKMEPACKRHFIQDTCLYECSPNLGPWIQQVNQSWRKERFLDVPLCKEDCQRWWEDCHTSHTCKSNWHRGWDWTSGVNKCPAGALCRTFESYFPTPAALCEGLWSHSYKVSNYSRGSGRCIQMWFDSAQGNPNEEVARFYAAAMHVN

[5] = tested on: LPS-stimulated TNF-α production in RAW264.7 cells; test: LPS-stimulated TNF-α production in RAW264.7 cells (ELISA); type: cell-based, murine; details: 72 h incubations
Procedure: as §1, §2

[6] = after single s.c. dose of EC0746 500 nmole/kg
[7] = rat, in vivo, subcutaneous, folate-deficient rats, biweekly injections for two weeks

SMILES: Nc1nc(N)c2nc(CNc3ccc(C(=O)N[C@@H](CCC(=O)O)C(=O)O)cc3)cnc2n1 [AMT | AMT]
- AUC0-t | (Pharmacokinetic analysis): 61.3 nmol/min/mL
- CL or CL_F | (Pharmacokinetic analysis): 1.7 mL/min
- Cmax | (Pharmacokinetic analysis): 601 nM
- T1/2(elimination) | min (Pharmacokinetic analysis): 140 min
- Tmax | min (Pharmacokinetic analysis): 30 min
- Vz or Vz_F | mL (Pharmacokinetic analysis): 328 mL

- effect of folic acid alone on DHFR activity (DHFR): did not have any impact
SMILES: Nc1nc2ncc(CNc3ccc(C(=O)N[C@@H](CCC(=O)O)C(=O)O)cc3)nc2c(=O)[nH]1 [folic acid]

SMILES: N=c1[nH]c(N)nc2ncc(CNc3ccc(C(=O)N[C@@H](CCC(=O)NNC(=O)OCCSSC[C@H](NC(=O)[C@H](CCC(=O)NC[C@H](O)[C@@H](O)[C@H](O)[C@H](O)CO)NC(=O)[C@H](CCC(=O)O)NC(=O)[C@H](CCC(=O)NC[C@H](O)[C@@H](O)[C@H](O)[C@H](O)CO)NC(=O)[C@H](CCC(=O)O)NC(=O)[C@H](CCC(=O)NC[C@H](O)[C@@H](O)[C@H](O)[C@H](O)CO)NC(=O)CC[C@H](NC(=O)c4ccc(NCc5cnc6nc(N)[nH]c(=O)c6n5)cc4)C(=O)O)C(=O)O)C(=O)O)cc3)nc12 [EC0746]
- EC50 (RAW264.7 cells; 2 hour treatment followed by 72 hours in treatment-free medium): 0.33 nM
- Area Under Curve for free drug [1, 6]: 7.3 nmol·min/mL
- Cmax for free drug (aminopterin+aminopterin hydrazide) [1, 6]: 34 nM
- Cmax for free drug as share of the total [1, 6]: 9.6%
- time at which Cmax for free drug (aminopterin+aminopterin hydrazide) is reached [1, 6]: 60 min
- half-life ([1]; female, Lewis, rat, in vivo, sc, 500 nmol/kg): ~35 min
- Cmax ([1]; female, Lewis, rat, in vivo, sc, 500 nmole/kg): 321 nM
- bioavailability after subcutaneous administration ([1]; rats, s.c.): bioavailable
- Area Under Curve for EC0746 ([1]; single s.c. dose of EC0746 500 nmole/kg): 32.5 nmol·min/mL
- fraction unbound (Serum protein binding): ~0.54
- fold less toxic than AMT on an equimolar basis ([2]; folate-deficient animals): approximately 40 fold
- fold less toxic than MTX on an equimolar basis ([2]; folate-deficient animals): ~2 fold
- MTD (free drug equivalent) fold higher than the MTD for free aminopterin ([2]; rat, in vivo): ~8 ×
- MTD fold higher than aminopterin on a molar basis for total aminopterin ([2]; rat, in vivo): 40 ×
- MTD at 2 weeks ([2]; rat, in vivo, sc, s.c. biweekly for 2 weeks): 2 µmol/kg
- MTD at 2 weeks [2, 7]: 2 µmol/kg
- gastrointestinal-associated toxicities at MTD dose ([2]; rats, at MTD): less gastrointestinal-associated toxicities than AMT and MTX
- relative folate receptor affinity (folic acid = 1) [3]: 0.50
- relative folate receptor affinity (folic acid = 1) [4]: 0.270

SMILES: CN(Cc1cnc2nc(N)nc(N)c2n1)c1ccc(C(=O)N[C@@H](CCC(=O)O)C(=O)O)cc1 [methotrexate, reference compound]
- MTD at 2 weeks [2, 7]: 1 µmol/kg
- relative folate receptor affinity (folic acid = 1) [3]: 0.018
- relative folate receptor affinity (folic acid = 1) [4]: 0.005

SMILES: NNC(=O)CC[C@H](NC(=O)c1ccc(NCc2cnc3nc(N)nc(N)c3n2)cc1)C(=O)O [EC0470, aminopterin gamma-hydrazide, reference compound]
- cell proliferation in the XTT assay, potency of potential EC0746 metabolites (RAW264.7 cells; 72 h incubations): equally potent
- LPS-stimulated TNF-α production, potency of potential EC0746 metabolites [5]: equally potent
- Tmax of released base drug ([1]; released from EC0746 after single s.c. dose 500 nmol/kg): ~60 min
- delay of plasma peak from the EC0746 Cmax ([1]; released from EC0746 in EC0746-dosed rats): 30 min

SMILES: Nc1nc(N)c2nc(CNc3ccc(C(=O)N[C@@H](CCC(=O)O)C(=O)O)cc3)cnc2n1 [aminopterin, reference compound]
- elimination half-life of metabolite released from EC0746 ([1]; female, Lewis, rat, in vivo, sc): ~117 min
- delay of plasma peak from the EC0746 Cmax ([1]; rat, in vivo): 30 min
- MTD ([2]; folate-deficient rats, biweekly injections for two weeks): 50 nmol/kg
